{"source": "paper PMC10397247", "key": {"[1]": {"molecular_target": "T1, 4H949-bA", "T1 chain": "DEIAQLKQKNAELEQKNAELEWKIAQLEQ", "experiment": "two-hybrid library CCNG1;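 further: natural log of median RNA to DNA barcode read ratio; higher means stronger binding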"}, "[2]": {"molecular_target": "T2, 4H949-bN", "T2 chain": "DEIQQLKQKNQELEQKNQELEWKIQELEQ", "experiment": "two-hybrid library CCNG1"}, "[3]": {"molecular_target": "T3, 4H384-AA", "T3 chain": "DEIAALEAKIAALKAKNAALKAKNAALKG", "experiment": "two-hybrid library CCmax", "details": "mean of both orientations"}, "[4]": {"molecular_target": "T4, 4H3865-AA", "T4 chain": "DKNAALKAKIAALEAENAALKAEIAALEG", "experiment": "two-hybrid library CCmax", "details": "mean of both orientations"}, "[5]": {"molecular_target": "T5, 4H697-AA", "T5 chain": "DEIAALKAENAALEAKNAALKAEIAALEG", "experiment": "two-hybrid library CCmax", "details": "mean of both orientations"}, "[6]": {"molecular_target": "T6, 4H3697-AA", "T6 chain": "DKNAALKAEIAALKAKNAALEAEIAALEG", "experiment": "two-hybrid library CCmax", "details": "mean of both orientations"}, "[7]": {"molecular_target": "T7, 4H3631-AA", "T7 chain": "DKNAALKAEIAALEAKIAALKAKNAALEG", "experiment": "two-hybrid library CCmax", "details": "mean of both orientations"}, "[8]": {"molecular_target": "T8, 4H982-AA", "T8 chain": "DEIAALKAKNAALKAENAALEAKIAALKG", "experiment": "two-hybrid library CCmax", "details": "mean of both orientations"}, "[9]": {"molecular_target": "T9, 4H3718-AA", "T9 chain": "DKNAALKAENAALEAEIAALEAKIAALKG", "experiment": "two-hybrid library CCmax", "details": "mean of both orientations"}, "[10]": {"molecular_target": "T10, 4H3606-AA", "T10 chain": "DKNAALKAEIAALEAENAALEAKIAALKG", "experiment": "two-hybrid library CCmax", "details": "mean of both orientations"}, "[11]": {"molecular_target": "T11, 4H3588-AA", "T11 chain": "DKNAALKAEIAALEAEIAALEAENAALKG", "experiment": "two-hybrid library CCmax"}, "[12]": {"molecular_target": "T12, 4H3413-AA", "T12 chain": "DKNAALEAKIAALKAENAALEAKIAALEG", "experiment": "two-hybrid library CCmax"}, "[13]": {"molecular_target": "T13, 4H918-bA", "T13 chain": "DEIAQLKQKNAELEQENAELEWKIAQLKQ", "experiment": "two-hybrid library CCNG1"}, "[14]": {"molecular_target": "T14, 4H72-bA", "T14 chain": "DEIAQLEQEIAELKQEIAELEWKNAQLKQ", "experiment": "two-hybrid library CCNG1"}, "[15]": {"molecular_target": "T15, 4H717-bA", "T15 chain": "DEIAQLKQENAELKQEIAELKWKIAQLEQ", "experiment": "two-hybrid library CCNG1"}, "[16]": {"molecular_target": "T16, 4H953-bA", "T16 chain": "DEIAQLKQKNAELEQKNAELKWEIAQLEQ", "experiment": "two-hybrid library CCNG1"}, "[17]": {"molecular_target": "T17, 4H883-bA", "T17 chain": "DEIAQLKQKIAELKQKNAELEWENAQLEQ", "experiment": "two-hybrid library CCNG1"}, "[18]": {"molecular_target": "T18, 4H908-bA", "T18 chain": "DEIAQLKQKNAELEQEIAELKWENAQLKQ", "experiment": "two-hybrid library CCNG1"}, "[19]": {"molecular_target": "T19, 4H797-bA", "T19 chain": "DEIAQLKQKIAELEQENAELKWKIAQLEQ", "experiment": "two-hybrid library CCNG1"}, "[20]": {"molecular_target": "T20, 4H754-bA", "T20 chain": "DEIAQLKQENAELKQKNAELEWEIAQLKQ", "experiment": "two-hybrid library CCNG1"}, "[21]": {"molecular_target": "T21, 4H967-bA", "T21 chain": "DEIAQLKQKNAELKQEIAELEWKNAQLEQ", "experiment": "two-hybrid library CCNG1"}}, "note": "Where two headings read alike, the source gives them in different places.", "data": [{"binder": "DEIAQLKQKNAELEQKNAELEWKIAQLEQ", "note": "[4H949-bA]", "values": [{"measurement": "interaction score", "setting": "[1]", "result": -0.253}]}, {"binder": "DEIQQLKQKNQELEQKNQELEWKIQELEQ", "note": "[4H949-bN]", "values": [{"measurement": "interaction score", "setting": "[2]", "result": -0.614}]}, {"binder": "DKNAALKAEIAALEAEIAALEAENAALKG", "note": "[4H3588-AA]", "values": [{"measurement": "interaction score", "setting": "[3]", "result": 1.38}, {"measurement": "interaction score", "setting": "[4]", "result": -1.15}, {"measurement": "interaction score", "setting": "[5]", "result": -1.44}, {"measurement": "interaction score", "setting": "[6]", "result": -2.28}, {"measurement": "interaction score", "setting": "[7]", "result": -0.285}, {"measurement": "interaction score", "setting": "[8]", "result": -1.37}, {"measurement": "interaction score", "setting": "[9]", "result": 0.71}, {"measurement": "interaction score", "setting": "[10]", "result": -1.57}, {"measurement": "interaction score", "setting": "[11]", "result": -1.05}]}, {"binder": "DKNAALEAKIAALKAENAALEAKIAALEG", "note": "[4H3413-AA]", "values": [{"measurement": "interaction score", "setting": "[3]", "result": -0.506}, {"measurement": "interaction score", "setting": "[4]", "result": 0.0208}, {"measurement": "interaction score", "setting": "[5]", "result": -0.828}, {"measurement": "interaction score", "setting": "[6]", "result": -0.722}, {"measurement": "interaction score", "setting": "[7]", "result": -1.19}, {"measurement": "interaction score", "setting": "[8]", "result": -1.39}, {"measurement": "interaction score", "setting": "[9]", "result": -1.38}, {"measurement": "interaction score", "setting": "[10]", "result": 1.14}, {"measurement": "interaction score", "setting": "[11]; mean of both orientations", "result": -1.34}, {"measurement": "interaction score", "setting": "[12]", "result": 0.362}]}, {"binder": "DEIAQLKQENAELKQEIAELKWKIAQLEQ", "note": "[4H717-bA]", "values": [{"measurement": "interaction score", "setting": "[13]", "result": -0.185}, {"measurement": "interaction score", "setting": "[14]", "result": 0.154}, {"measurement": "interaction score", "setting": "[15]", "result": 0.924}, {"measurement": "interaction score", "setting": "[16]", "result": -0.433}, {"measurement": "interaction score", "setting": "[17]", "result": -1.09}, {"measurement": "interaction score", "setting": "[18]", "result": 0.244}, {"measurement": "interaction score", "setting": "[19]", "result": -1.13}, {"measurement": "interaction score", "setting": "[20]", "result": -0.36}, {"measurement": "interaction score", "setting": "[21]", "result": -0.574}]}]}
